Where a chain is given by its changes, count along the chain named.
B1: MAB #2 (antibody, human IgG1, lambda)
heavy: EVQLVESGGGLVKPGGSLRLSCAASGFTFSSYAMHWVRQAPGKGLEWVGRIKSVAQGGTTDYAAHVKGRFTISRDDSKNTLYLQMNSLKTEDTAVYYCARVSHSTFDVWGQGTLVTVSSASTKGPSVFPLAPSSKSTSGGTAALGCLVKDYFPEPVTVSWNSGALTSGVHTFPAVLQSSGLYSLSSVVTVPSSSLGTQTYICNVNHKPSNTKVDKRVEPKSCDKTHTCPPCPAPEAEGAPSVFLFPPKPKDTLMISRTPEVTCVVVDVSHEDPEVKFNWYVDGVEVHNAKTKPREEQYNSTYRVVSVLTVLHQDWLNGKEYKCKVSNKALPSSIEKTISKAKGQPREPQVYTLPPSREEMTKNQVSLTCLVKGFYPSDIAVEWESNGQPENNYKTTPPVLDSDGSFFLYSKLTVDKSRWQQGNVFSCSVMHEALHNHYTQKSLSLSPGK
light: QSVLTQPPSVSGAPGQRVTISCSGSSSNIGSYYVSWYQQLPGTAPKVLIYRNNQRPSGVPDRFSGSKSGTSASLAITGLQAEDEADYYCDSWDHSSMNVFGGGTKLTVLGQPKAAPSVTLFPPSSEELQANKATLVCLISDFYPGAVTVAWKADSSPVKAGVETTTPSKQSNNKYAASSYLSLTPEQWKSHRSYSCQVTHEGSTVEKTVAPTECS
notes: lambda 1 light chain
B2: MAB #1 (antibody, human IgG1, lambda)
heavy: B1 heavy with V54K, H103F
light: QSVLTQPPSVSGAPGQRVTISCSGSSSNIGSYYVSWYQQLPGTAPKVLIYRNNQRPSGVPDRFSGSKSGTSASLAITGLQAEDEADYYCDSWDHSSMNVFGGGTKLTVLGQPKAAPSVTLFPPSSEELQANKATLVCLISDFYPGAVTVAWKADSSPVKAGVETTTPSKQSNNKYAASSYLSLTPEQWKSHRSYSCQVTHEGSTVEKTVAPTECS
notes: lambda 1 light chain, VH3-15 framework

Experiments:
[1] = molecular target: T1, Human FcγRIIIa (1-193)-(158F)-HIS6 (human, UniProt P08637 17-193); test: BLI (Octet), IgG captured on Protein A sensors, FcγR titrated
T1 construct: Extracellular region with C-terminal 6xHis tag; UniProt P08637 printed
T1 sequence (P08637 other isoform, or with tags, fused parts or gaps): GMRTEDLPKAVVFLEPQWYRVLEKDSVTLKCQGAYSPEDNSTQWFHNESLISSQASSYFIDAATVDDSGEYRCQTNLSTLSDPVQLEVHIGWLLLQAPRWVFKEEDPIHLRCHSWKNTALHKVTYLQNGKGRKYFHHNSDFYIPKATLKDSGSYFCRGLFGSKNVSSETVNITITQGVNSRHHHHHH
Experimental: (§1) 2.0 nm of IgGs diluted in Octet assay buffer (PBS, 0.05% (v/v) Tween-20, 0.1% (w/v) BSA) were captured on Protein A sensors (FortéBIO, Pall Life Sciences). Kinetic measurements were performed using 7 concentrations of Fc gamma receptors (2n serial dilution) in assay buffer. […] All sensorgrams were fitted using Data Analysis Software 10.0, (FortéBIO, Pall Life Sciences) to determine kₒₙ and koff rate constants, which were used to calculate KD. The raw data was fitted with a 1:1 binding model, with parameter Rₘₐₓ set to local.

[2] = molecular target: T2, Human FcγRIIa (1-209)-(131R)-HIS6 (human, UniProt P12318 34-209); test: as above
T2 construct: Extracellular region with C-terminal 6xHis tag; UniProt P12318 printed
T2 chain: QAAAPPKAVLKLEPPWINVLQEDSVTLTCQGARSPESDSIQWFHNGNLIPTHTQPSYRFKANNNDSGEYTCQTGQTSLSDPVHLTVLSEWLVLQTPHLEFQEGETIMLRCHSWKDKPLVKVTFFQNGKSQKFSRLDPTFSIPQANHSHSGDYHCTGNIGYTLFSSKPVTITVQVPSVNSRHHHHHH
Experimental: as §1

[3] = molecular target: T3, Human FcγRIIa (1-209)-(131H)-HIS6 (human, UniProt P12318 34-209); test: as above
T3 construct: Extracellular region with C-terminal 6xHis tag; UniProt P12318 printed
T3 sequence: T2 chain with R134H
Experimental: as §1

[4] = molecular target: T4, Human FcγRIIIa (1-193)-(158V)-HIS6 (human, UniProt P08637 17-193); test: as above
T4 construct: Extracellular region with C-terminal 6xHis tag; UniProt P08637 printed
T4 sequence (P08637 other isoform, or with tags, fused parts or gaps): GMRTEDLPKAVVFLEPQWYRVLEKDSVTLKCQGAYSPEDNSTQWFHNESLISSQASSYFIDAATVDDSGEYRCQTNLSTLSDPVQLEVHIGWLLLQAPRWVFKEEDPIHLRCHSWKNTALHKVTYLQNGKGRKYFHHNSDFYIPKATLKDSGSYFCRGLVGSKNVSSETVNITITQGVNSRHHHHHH
Experimental: as §1

[5] = molecular target: T5, Human FcγRI (1-279)_HIS6 (human, UniProt P12314 16-280); test: as above
T5 construct: Extracellular region with C-terminal 6xHis tag; UniProt P12314 printed
T5 sequence (P12314 other isoform, or with tags, fused parts or gaps): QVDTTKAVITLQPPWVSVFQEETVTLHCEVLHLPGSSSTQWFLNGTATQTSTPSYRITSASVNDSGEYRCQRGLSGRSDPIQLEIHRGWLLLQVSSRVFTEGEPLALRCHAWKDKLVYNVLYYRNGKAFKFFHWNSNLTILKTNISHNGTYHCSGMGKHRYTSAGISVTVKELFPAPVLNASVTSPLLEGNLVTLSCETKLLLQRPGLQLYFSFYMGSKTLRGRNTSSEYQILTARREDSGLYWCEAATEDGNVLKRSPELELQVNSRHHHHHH
Experimental: as §1

[6] = molecular target: T6, Human FcγRIIB (1-202)-HIS6 (human, UniProt P31994 43-217); test: as above
T6 construct: Extracellular region with C-terminal 6xHis tag; UniProt P31994 printed
T6 sequence: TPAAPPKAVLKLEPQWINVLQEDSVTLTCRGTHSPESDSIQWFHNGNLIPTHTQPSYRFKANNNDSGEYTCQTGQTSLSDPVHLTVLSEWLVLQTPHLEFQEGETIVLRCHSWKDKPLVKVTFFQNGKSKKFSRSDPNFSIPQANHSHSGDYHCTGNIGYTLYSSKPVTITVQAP
Experimental: as §1

[7] = molecular target: T7, full-length human FPR1 expressed on CHO Flp-In cells (human, UniProt P21462 1-350); test: FACS, CHO Flp-In cells expressing human FPR1, single IgG concentration
T7 construct: also called fMet-Leu-Phe receptor
T7 chain: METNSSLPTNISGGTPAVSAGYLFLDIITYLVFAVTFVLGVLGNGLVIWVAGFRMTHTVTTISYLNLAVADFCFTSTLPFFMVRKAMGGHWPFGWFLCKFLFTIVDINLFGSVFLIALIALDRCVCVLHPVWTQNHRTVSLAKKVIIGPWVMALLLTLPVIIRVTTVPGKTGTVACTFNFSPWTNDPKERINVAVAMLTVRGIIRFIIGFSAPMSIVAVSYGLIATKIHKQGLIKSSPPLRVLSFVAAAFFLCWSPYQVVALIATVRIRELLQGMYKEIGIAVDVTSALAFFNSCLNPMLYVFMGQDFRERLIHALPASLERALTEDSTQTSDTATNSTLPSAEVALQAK

[8] = molecular target: T8, cynomolgus C5aR_NT-bio peptide (cynomolgus monkey, biotin tag (position not given)); test: BLI (Octet), apparent (bivalent)
T8 construct: Chemically synthesized linear peptide (Genscript); also called cynomolgus C5aR N-terminal peptide; cynomolgus C5aR peptide
T8 peptide: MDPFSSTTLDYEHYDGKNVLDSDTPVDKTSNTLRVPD

[9] = molecular target: T9, Mouse FcRn p51 [1-297]/AviHis/p14 biotinylated (mouse, UniProt Q61559 22-298; P01887 21-119, biotinylated in vitro with BirA (Avi tag)); test: BLI (Octet HTX), biotinylated FcRn on SA sensors, IgG titrated, steady state fit, apparent KD, pH 7.2
T9 construct: Heterodimer; UniProt Q61559 (p51); also called Murine FcRn
T9 chain 1: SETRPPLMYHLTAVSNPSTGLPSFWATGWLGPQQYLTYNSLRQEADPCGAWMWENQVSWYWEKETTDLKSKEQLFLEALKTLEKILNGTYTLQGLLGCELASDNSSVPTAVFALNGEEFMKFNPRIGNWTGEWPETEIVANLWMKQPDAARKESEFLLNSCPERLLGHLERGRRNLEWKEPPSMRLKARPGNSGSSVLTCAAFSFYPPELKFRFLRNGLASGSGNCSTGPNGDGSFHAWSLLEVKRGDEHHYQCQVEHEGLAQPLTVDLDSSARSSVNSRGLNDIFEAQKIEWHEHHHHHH
T9 chain 2: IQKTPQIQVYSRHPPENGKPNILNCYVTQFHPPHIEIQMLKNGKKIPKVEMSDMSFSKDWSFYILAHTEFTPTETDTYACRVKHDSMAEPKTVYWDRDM
Text: (§2) 0.5 nm of biotinylated human, cynomolgus, mouse and rat FcRn were captured on streptavidin (SA) sensors (FortéBIO, Pall Life Sciences). […] All sensorgrams were fitted using Data Analysis Software 10.0 (FortéBIO, Pall Life Sciences) to determine the apparent affinity and the data was fitted with a steady state model.

[10] = molecular target: T10, Rat FcRn p51 [1-298]/AviHis/p14 biotinylated (rat, UniProt P13599 23-299; P07151 21-119, biotinylated in vitro with BirA (Avi tag)); test: as above
T10 construct: Heterodimer; UniProt P13599 (p51)
T10 sequence 1: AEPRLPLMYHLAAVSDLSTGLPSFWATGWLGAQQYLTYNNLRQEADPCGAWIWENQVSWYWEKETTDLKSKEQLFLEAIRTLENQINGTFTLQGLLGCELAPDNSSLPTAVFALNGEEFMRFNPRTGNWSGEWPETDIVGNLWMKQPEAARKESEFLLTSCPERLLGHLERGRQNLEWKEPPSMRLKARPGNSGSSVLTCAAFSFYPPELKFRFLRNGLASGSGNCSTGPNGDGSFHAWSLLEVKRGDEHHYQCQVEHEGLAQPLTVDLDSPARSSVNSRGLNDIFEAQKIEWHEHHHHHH
T10 sequence 2: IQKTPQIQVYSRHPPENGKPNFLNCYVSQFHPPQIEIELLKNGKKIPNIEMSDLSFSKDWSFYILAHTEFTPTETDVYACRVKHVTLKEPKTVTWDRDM
Text: as §2

Binder | binding result [1] | binding result [2] | binding result [3] | binding result [4] | binding result [5] | binding result [6] | binding result [7] | fold weaker binding than to the human C5aR peptide [8] | Kd [9] | Kd [10]
B1 | no binding | binds | no binding | no binding | no binding | no binding | no binding (tested: 300 nM) | ~1000 fold | 130 nM | 300 nM
B2 | no binding | binds | no binding | no binding | no binding | no binding | no binding (tested: 300 nM) | ~1000 fold | 39 nM | 110 nM
